The source of these data is patent US8574601B2, “Sustained-release polymer micelle disruptable by HDL” (Nanocarrier Co., Ltd., priority 2010, dated 2013).

This series can be described thus: Rat intravenous administration test of polymer micelle encapsulating G-CSF (Example 1), plasma G-CSF concentration. Conditions: 100 μg/kg i.v. tail vein, male Wistar rats; FIG. 3. In kind it is in vivo. On the procedure:
PEG-pGlu (10-40, 30% Chol) was used as a block copolymer. The block copolymer was weighed in a vial. A 20 mM 2-morpholinoethanesulfonic acid monohydrate (MES) buffer (pH 5) was added thereto so as to achieve a polymer concentration of 2 mg/mL and the mixture was vigorously stirred at 4° C. overnight. The polymer solution was subjected to ultrasonic irradiation (in an ice water bath, Low, interval of 1 second, 10 minutes) using a biodisruptor (High Power Unit manufactured by NIHONSEIKI KAISHA LTD.) and then treated with a 0.22-μm membrane filter. Thus, an empty micelle solution having a polymer concentration of 2 mg/mL was obtained. […]
The solution of the polymer micelles encapsulating G-CSF obtained above was administered to male Wistar rats via the tail vein. […] The plasma G-CSF concentration was measured using a G-CSF-ELISA kit (manufactured by RayBiotech, Inc.). […]
FIG. 3 illustrates the results of Example 1 (average±SD). FIG. 3 also illustrates theoretical values for the time-course of plasma concentration of a mixed polymer micelle (1:1), which theoretical values were calculated from the results of the time-courses of the plasma concentration of the test examples using PEG-pGlu (10-40, 30% Chol) and PEG-pGlu (10-40, 60% C8).

B1: G-CSF: G-CSF solution (100 μg/mL) administered directly (protein, UniProt P09919 31-207, looked up)
Granulocyte …: TPLGPASSLPQSFLLKCLEQVRKIQGDGAALQEKLVSECATYKLCHPEELVLLGHSLGIPWAPLSSCPSQALQLAGCLSQLHSGLFLYQGLLQALEGISPELGPTLDTLQLDVADFATTIWQQMEELGMAPALQPTQGAMPAFASAFQRRAGGVLVASHLQSFLEVSYRVLRHLAQP
With B1, the “retention time in plasma” value is reported as “extremely short”.
